In paper PMC2727048 one finds percent of the radioactivity in the four major (capsid) fractions, percent of 32P core proteins in the particle fractions and percent of the radioactivity in the three major (capsid) fractions data, which are given here for two molecules.

Holding throughout (details): remark: other sources report otherwise
Assay [1] deals with T1, HBV core protein of virion-derived mature capsids (Mat-C) (Hepatitis B virus), P03146.
T1 chain: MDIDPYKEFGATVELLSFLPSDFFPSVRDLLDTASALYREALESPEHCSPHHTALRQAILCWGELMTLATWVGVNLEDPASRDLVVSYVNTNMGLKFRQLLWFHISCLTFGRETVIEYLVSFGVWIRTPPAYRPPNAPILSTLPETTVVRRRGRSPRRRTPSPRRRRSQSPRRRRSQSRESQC
Description: Nycodenz gradient ultracentrifugation.

Assay [2] concerns the target T1, HBV core protein of virion-derived …. Nature of the assay: Nycodenz gradient ultracentrifugation; 50 ng P-Mat-C after transport reaction with 4×10^6 digitonin-permeabilized HuH-7 cells and rabbit reticulocyte lysate, lysate of the cells on the gradient; controls with WGA, cells treated with RNase A.
Assay [3] concerns the target T2, HBV core protein of E. coli-derived "recombinant" capsids (rC) (Hepatitis B virus), P03146.
T2 chain: T1 chain
Nature of the assay: Nycodenz gradient ultracentrifugation.

B1: HBV core protein of virion-derived mature capsids (Mat-C), P03146 1-183 (natural protein)
chain: T1 chain
For B1, the percent of the radioactivity in the four major (capsid) fractions in assay [1] came to 98%. In addition, in assay [2], the percent of 32P core proteins in the particle fractions turned out to be 99%.

B2: HBV core protein of E. coli-derived "recombinant" capsids (rC), P03146 1-183 (natural protein)
chain: T1 chain
For the molecule B2, the percent of the radioactivity in the three major (capsid) fractions in assay [3] amounted to 91%.
